According to paper PMC3834829, “A signature motif mediating selective interactions of BCL11A with the NR2E/F subfamily of orphan nuclear receptors” (Nucleic Acids Research, 2013):

B1: LexA-BCL11A-(651–670) [not stated] / AAD-COUP-TFI-LBD-(151–467) [not stated] (parent complex)
chain 1: NTENVYSQWLAGYAASRQLK
chain 2: MRREAVQRGRMPPTQPNPGQYALTNGDPLNGHCYLSGYISLLLRAEPYPTSRYGSQCMQPNNIMGIENICELAARLLFSAVEWARNIPFFPDLQITDQVSLLRLTWSELFVLNAAQCSMPLHVAPLLAAAGLHASPMSADRVVAFMDHIRIFQEQVEKLKALHVDSAEYSCLKAIVLFTSDACGLSDAAHIESLQEKSQCALEEYVRSQYPNQPSRFGKLLLRLPSLRTVSSSVIEQLFFVRLVGKTPIETLIRDMLLSGSSFNWPYMSIQCS
B2: AAD-COUP-TFII-LBD-(144–414) [not stated] / LexA-BCL11A-(310–325) [not stated] (parent complex)
chain 1: MRREAVQRGRMPPTQPTHGQFALTNGDPLNCHSYLSGYISLLLRAEPYPTSRFGSQCMQPNNIMGIENICELAARMLFSAVEWARNIPFFPDLQITDQVALLRLTWSELFVLNAAQCSMPLHVAPLLAAAGLHASPMSADRVVAFMDHIRIFQEQVEKLKALHVDSAEYSCLKAIVLFTSDACGLSDVAHVESLQEKSQCALEEYVRSQYPNQPTRFGKLLLRLPSLRTVSSSVIEQLFFVRLVGKTPIETLIRDMLLSGSSFNWPYMAIQ
chain 2: PPAMDFSRRLRELAGN
B3: LexA-BCL11A-(651–670) [not stated] / AAD-EAR2-LBD-(121–399) [not stated] (parent complex)
chain 1: NTENVYSQWLAGYAASRQLK
chain 2: MRKEAVQRGRIPHSLPGAVAASSGSPPGSALAAVASGGDLFPGQPVSELIAQLLRAEPYPAAAGRFGAGGGAAGAVLGIDNVCELAARLLFSTVEWARHAPFFPELPVADQVALLRLSWSELFVLNAAQAALPLHTAPLLAAAGLHAAPMAAERAVAFMDQVRAFQEQVDKLGRLQVDSAEYGCLKAIALFTPDACGLSDPAHVESLQEKAQVALTEYVRAQYPSQPQRFGRLLLRLPALRAVPASLISQLFFMRLVGKTPIETLIRDMLLSGSTFNWP
B4: LexA-BCL11A-(310–325) [not stated] / AAD-COUP-TFI-LBD-(151–467) [not stated] (parent complex)
chain 1: PPAMDFSRRLRELAGN
chain 2: B1 chain 2

Variants of: B1
Assay: yeast two-hybrid; read off a plot

Row | response [nmol/mg/min] | Variant
1 | ~220 | chain 1 NTENAYSQWLAGYAASRQLK [chain 1 V5A]
2 | ~0 | chain 1 NTENVYSQWLAGAAASRQLK [chain 1 Y13A]
3 | ~0 | chain 1 NTENVYAQWLAGYAASRQLK [chain 1 S7A]
4 | ~920 | chain 1 NTENVYSAWLAGYAASRQLK [chain 1 Q8A]
5 | ~0 | chain 1 NTENVYSQWAAGYAASRQLK [chain 1 L10A]
6 | ~2300 | chain 1 NTENVYSQWLAAYAASRQLK [chain 1 G12A]
7 | ~50 | chain 1 NTENVASQWLAGYAASRQLK [chain 1 Y6A]
8 | ~0 | chain 1 NTENVYSQALAGYAASRQLK [chain 1 W9A]

Variants of: B2
Assay: yeast two-hybrid; read off a plot

Row | response [nmol/mg/min] | Variant
9 | ~960 | chain 1 MRREAVQRGRMPPTQPTHGQFALTNGDPLNCHSYLSGYISLLLRAEPYPTSRFGSQCMQPNNIMGIENICELAARMLFSAAEWARNIPFFPDLQITDQVALLRLTWSELFVLNAAQCSMPLHVAPLLAAAGLHASPMSADRVVAFMDHIRIFQEQVEKLKALHVDSAEYSCLKAIVLFTSDACGLSDVAHVESLQEKSQCALEEYVRSQYPNQPTRFGKLLLRLPSLRTVSSSVIEQLFFVRLVGKTPIETLIRDMLLSGSSFNWPYMAIQ [chain 1 V81A]
10 | ~850 | chain 1 MRREAVQRGRMPPTQPTHGQFALTNGDPLNCHSYLSGYISLLLRAEPYPTSRFGSQCMQPNNIMGIENICELAARMLFSAVEWARNIPFFPDLQATDQVALLRLTWSELFVLNAAQCSMPLHVAPLLAAAGLHASPMSADRVVAFMDHIRIFQEQVEKLKALHVDSAEYSCLKAIVLFTSDACGLSDVAHVESLQEKSQCALEEYVRSQYPNQPTRFGKLLLRLPSLRTVSSSVIEQLFFVRLVGKTPIETLIRDMLLSGSSFNWPYMAIQ [chain 1 I95A]
11 | ~2100 | chain 1 MRREAVQRGRMPPTQPTHGQFALTNGDPLNCHSYLSGYISLLLRAEPYPTSRFGSQCMQPNNIMGIENICELAARMLFSAVEWAANIPFFPDLQITDQVALLRLTWSELFVLNAAQCSMPLHVAPLLAAAGLHASPMSADRVVAFMDHIRIFQEQVEKLKALHVDSAEYSCLKAIVLFTSDACGLSDVAHVESLQEKSQCALEEYVRSQYPNQPTRFGKLLLRLPSLRTVSSSVIEQLFFVRLVGKTPIETLIRDMLLSGSSFNWPYMAIQ [chain 1 R85A]
12 | ~330 | chain 1 MRREAVQRGRMPPTQPTHGQFALTNGDPLNCHSYLSGYISLLLRAEPYPTSRFGSQCMQPNNIMGIENICELAARMLFSAVEWARNIPFFPDLQITDQVALLALTWSELFVLNAAQCSMPLHVAPLLAAAGLHASPMSADRVVAFMDHIRIFQEQVEKLKALHVDSAEYSCLKAIVLFTSDACGLSDVAHVESLQEKSQCALEEYVRSQYPNQPTRFGKLLLRLPSLRTVSSSVIEQLFFVRLVGKTPIETLIRDMLLSGSSFNWPYMAIQ [chain 1 R103A]
13 | ~0 | chain 1 MRREAVQRGRMPPTQPTHGQFALTNGDPLNCHSYLSGYISLLLRAEPYPTSRFGSQCMQPNNIMGIENICELAARMLASAVEWARNIPFFPDLQITDQVALLRLTWSELFVLNAAQCSMPLHVAPLLAAAGLHASPMSADRVVAFMDHIRIFQEQVEKLKALHVDSAEYSCLKAIVLFTSDACGLSDVAHVESLQEKSQCALEEYVRSQYPNQPTRFGKLLLRLPSLRTVSSSVIEQLFFVRLVGKTPIETLIRDMLLSGSSFNWPYMAIQ [chain 1 F78A]
14 | ~640 | chain 1 MRREAVQRGRMPPTQPTHGQFALTNGDPLNCHSYLSGYISLLLRAEPYPTSRFGSQCMQPNNIMGIENICELAARMLFSAVEWARNIPFFPDLQITDQAALLRLTWSELFVLNAAQCSMPLHVAPLLAAAGLHASPMSADRVVAFMDHIRIFQEQVEKLKALHVDSAEYSCLKAIVLFTSDACGLSDVAHVESLQEKSQCALEEYVRSQYPNQPTRFGKLLLRLPSLRTVSSSVIEQLFFVRLVGKTPIETLIRDMLLSGSSFNWPYMAIQ [chain 1 V99A]

Variants of: B3
Assay: yeast two-hybrid; read off a plot

Row | response [nmol/mg/min] | Variant
15 | ~0 | chain 1 NTENVYSQWAAGYAASRQLK [chain 1 L10A]
16 | ~130 | chain 1 NTENVYSQALAGYAASRQLK [chain 1 W9A]
17 | ~0 | chain 1 NTENVYSQWLAGAAASRQLK [chain 1 Y13A]
18 | ~840 | chain 1 NTENVASQWLAGYAASRQLK [chain 1 Y6A]
19 | ~1800 | chain 1 NTENVYSQWLAAYAASRQLK [chain 1 G12A]
20 | ~190 | chain 1 NTENAYSQWLAGYAASRQLK [chain 1 V5A]
21 | ~910 | chain 1 NTENVYAQWLAGYAASRQLK [chain 1 S7A]
22 | ~900 | chain 1 NTENVYSAWLAGYAASRQLK [chain 1 Q8A]

Variants of: B4
Assay: yeast two-hybrid; read off a plot

Row | response [nmol/mg/min] | Variant
23 | ~0 | chain 1 PPAMDASRRLRELAGN [chain 1 F6A]
24 | ~0 | chain 1 PPAMDFSRRARELAGN [chain 1 L10A]
25 | ~0 | chain 1 PPAMDFSRRLREAAGN [chain 1 L13A]
26 | ~670 | chain 1 PPAMDFSRRLAELAGN [chain 1 R11A]
